The text below walks through data of the Human Domainome abundance scans (Beltran et al. 2025).

± gives the uncertainty stated by the source.

B1: Transcription elongation regulator 1-like protein, residues 448 to 504; numbered along this chain, Q5VWI1 (parent)
chain: LPLEERVTHFRDMLLERGVSAFSTWEKELHKIVFDPRYLLLNSEERKQIFEQFVKTR
B2: Ankyrin-2, residues 3571 to 3650; numbered along this chain, Q01484 (parent)
chain: ERLAYIADHLGFSWTELARELDFTEEQIHQIRIENPNSLQDQSHALLKYWLERDGKHATDTNLVECLTKINRMDIVHLME

The variants in one data set derive from B1. The data set is described as follows: abundance fitness (aPCA) (normalised: wild type 0, dead -1); higher = more abundant; growth selection in yeast, the domain comes from the species named. The settings on record: Homo sapiens.
As to D12E, the abundance fitness came out at 0.274 ± 0.19.

Take D12F: the abundance fitness was -0.624 ± 0.45.

As for D12V, the abundance fitness was -0.641 ± 0.26. On the same count and under the same terms, with D12K the figure was -0.119 ± 0.1; with D12M, 0.191 ± 0.12. Still for that read-out and setting: under D12R stands -0.283 ± 0.14; under D12P, -0.83 ± 0.21; under D12S, -0.237 ± 0.098. With D12W, the abundance fitness is -0.059 ± 0.16.

Regarding D12N, the abundance fitness was -0.26 ± 0.26.

On to D12I, for which the abundance fitness is -0.177 ± 0.33.

On to L15D, for which the abundance fitness was -0.142 ± 0.47.

In the case of L15C, the abundance fitness is -0.454 ± 0.17. L15A: the abundance fitness was -0.226 ± 0.19. V7H: the abundance fitness was -0.303 ± 0.22. Still for that read-out and setting: under V7M stands 0.434 ± 0.21; under V7T, -0.34 ± 0.094; under V7I, 0.199 ± 0.16.

In the case of V7C, the abundance fitness is -0.568 ± 0.2. On to V7E, for which the abundance fitness was -0.406 ± 0.4. Same read-out and setting: under V7F stands 0.022 ± 0.14; under V7G, -0.407 ± 0.14. V7W: the abundance fitness is -0.594 ± 0.5. Still for that read-out and setting: with V7A the figure was 0.039 ± 0.16; with V7Y, -0.075 ± 0.35. Still for that read-out and setting: with V7S the figure was -0.334 ± 0.24; with V7L, -0.096 ± 0.15. On to V7K, for which the abundance fitness was determined as 0.843 ± 0.13.

Variants of B2 are the subject of the next data set. The data set is described as above. The settings on record: Homo sapiens.
As to F23H, the abundance fitness is -0.663 ± 0.078.

With F23S, the abundance fitness was -0.575 ± 0.075. On to A58G, for which the abundance fitness is -0.03 ± 0.047.

Regarding A58P, the abundance fitness was 0.027 ± 0.079. Take A58H: the abundance fitness came to 0.156 ± 0.18. On the same count and under the same terms, with D8I the figure was -0.237 ± 0.41; with D8E, -0.075 ± 0.46; with S43R, -0.701 ± 0.24.

As to S43M, the abundance fitness is -1.13 ± 0.43. Same read-out and setting: under L67H stands -0.838 ± 0.5; under A4H, 0.016 ± 0.067. For the variant A4K, the abundance fitness is -0.029 ± 0.08.

On to A4N, for which the abundance fitness was -0.024 ± 0.11. Turning to T15A, the abundance fitness was -0.02 ± 0.055. In the case of T15M, the abundance fitness is -0.21 ± 0.13. For the variant T15D, the abundance fitness was -0.195 ± 0.19. Same read-out and setting: with D54W the figure was -0.041 ± 0.1; with D54Y, 0.008 ± 0.091.

As to L51W, the abundance fitness is -0.106 ± 0.17.

Consider L51P, for which the abundance fitness is -0.272 ± 0.079. Still for that read-out and setting: with E20R the figure was -0.057 ± 0.056; with L10R, -1.09 ± 0.16; with I28L, -0.05 ± 0.052.

As for I28Q, the abundance fitness was -0.179 ± 0.093. On the same count and under the same terms, with I28A the figure was -0.215 ± 0.078; with L17Y, -0.478 ± 0.16. On the same count and under the same terms, with L17V the figure was -0.096 ± 0.078; with V76Q, -0.107 ± 0.16. Same read-out and setting: with V76E the figure was -0.063 ± 0.11. On to H9P, for which the abundance fitness is -0.268 ± 0.17.

Regarding H9C, the abundance fitness is 0.006 ± 0.4. The same measure, in the same setting: under H9D stands 0.021 ± 0.088; under Q30T, -0.023 ± 0.079; under Q30L, -0.052 ± 0.058. On the same count and under the same terms, with L39P the figure was -0.016 ± 0.086. In the case of L39S, the abundance fitness was -0.025 ± 0.061.

Consider L39T, for which the abundance fitness is -0.134 ± 0.074. On the same count and under the same terms, under F12G stands 0.005 ± 0.068.

For the variant I31T, the abundance fitness is -0.157 ± 0.074.

Consider I31L, for which the abundance fitness was -0.06 ± 0.065. For D22M, the abundance fitness was -0.075 ± 0.05. D22E: the abundance fitness was -0.217 ± 0.14. On the same count and under the same terms, with D22N the figure was -0.111 ± 0.14; with D22K, -0.051 ± 0.12.

V64Q: the abundance fitness was -0.065 ± 0.11.

Take N62H: the abundance fitness is 0.015 ± 0.11. The same measure, in the same setting: under D74H stands -0.563 ± 0.15; under D74I, -0.692 ± 0.22.

Consider R53T, for which the abundance fitness was -0.029 ± 0.072. For the variant S13V, the abundance fitness was -0.214 ± 0.099. For S13A, the abundance fitness is -0.097 ± 0.081. The same measure, in the same setting: under K69Y stands -0.017 ± 0.15; under C66P, 0.065 ± 0.056. For C66T, the abundance fitness was -0.078 ± 0.065.

With E52L, the abundance fitness worked out at 0.012 ± 0.081. E52C: the abundance fitness is -0.132 ± 0.052. Take E52H: the abundance fitness is -0.09 ± 0.12. Still for that read-out and setting: with E52Q the figure was 0.088 ± 0.12; with E52S, -0.057 ± 0.062; with R19K, 0.077 ± 0.11. On the same count and under the same terms, with R19P the figure was -0.208 ± 0.059; with R19Y, -0.396 ± 0.44. On the same count and under the same terms, with Y5M the figure was -0.559 ± 0.43; with Y5L, 0.096 ± 0.29. Regarding L3S, the abundance fitness was found to be 0.043 ± 0.069. The same measure, in the same setting: with L3H the figure was -0.038 ± 0.13. For the variant L3W, the abundance fitness was -0.117 ± 0.05. Turning to L3Y, the abundance fitness was -0.155 ± 0.2.

In the case of Y49L, the abundance fitness is 0.017 ± 0.071. D41C: the abundance fitness is -0.109 ± 0.072. For the variant H29E, the abundance fitness is -0.041 ± 0.17. With H29L, the abundance fitness was -0.006 ± 0.077. Still for that read-out and setting: with L63S the figure was -0.634 ± 0.081; with L63A, -0.11 ± 0.049; with R32G, -0.05 ± 0.067.

As to K56P, the abundance fitness is -0.05 ± 0.063. On the same count and under the same terms, with K56S the figure was -0.019 ± 0.061. Still for that read-out and setting: with T61P the figure was 0.029 ± 0.06; with E16I, 0.061 ± 0.22. Still for that read-out and setting: under E16V stands -0.104 ± 0.091; under A18S, -0.196 ± 0.089.

Regarding A45R, the abundance fitness was -0.002 ± 0.27. On the same count and under the same terms, under A45D stands 0.097 ± 0.29. The same measure, in the same setting: under N35V stands -0.084 ± 0.059; under N35A, -0.066 ± 0.066; under E26Y, -0.118 ± 0.14. The same measure, in the same setting: under E26T stands -0.027 ± 0.066; under Q42H, -0.807 ± 0.49; under Q42W, -0.481 ± 0.27.

Turning to Q42T, the abundance fitness was -0.538 ± 0.46.

Regarding M79K, the abundance fitness is -0.23 ± 0.27. With D60K, the abundance fitness was -0.092 ± 0.12. On to D60Q, for which the abundance fitness was -0.018 ± 0.075. For the variant D60A, the abundance fitness is -0.07 ± 0.071. As for D60I, the abundance fitness was -0.104 ± 0.12. Same read-out and setting: with D60E the figure was -0.041 ± 0.08. I75R: the abundance fitness is -0.609 ± 0.21. In the case of L47V, the abundance fitness is -0.034 ± 0.062. On the same count and under the same terms, with L47N the figure was -0.582 ± 0.23; with Q27I, -0.039 ± 0.13. Same read-out and setting: with Q27A the figure was -0.116 ± 0.081; with L46W, 0.141 ± 0.48. Same read-out and setting: under H44D stands -0.935 ± 0.45; under H57M, 0.004 ± 0.085; under H57W, -0.065 ± 0.09. Consider H57G, for which the abundance fitness was -0.019 ± 0.052. Consider W50M, for which the abundance fitness turned out to be 0.007 ± 0.094.

Turning to T24F, the abundance fitness was -0.053 ± 0.1. On the same count and under the same terms, under T24W stands -0.409 ± 0.1. Same read-out and setting: with T24Q the figure was 0.025 ± 0.17. Still for that read-out and setting: under K48Q stands -0.097 ± 0.11. Regarding K48A, the abundance fitness is -0.063 ± 0.062. Still for that read-out and setting: with K48I the figure was -0.164 ± 0.17; with T68E, 0.047 ± 0.11; with T68R, -0.071 ± 0.051. Same read-out and setting: under T68G stands -0.039 ± 0.077; under S38Y, -0.474 ± 0.41; under S38T, -0.039 ± 0.065. As to S38N, the abundance fitness is -0.065 ± 0.14. Still for that read-out and setting: under N37K stands -0.074 ± 0.13; under N37M, 0.099 ± 0.099; under I33P, -0.912 ± 0.12. On to I6R, for which the abundance fitness was -0.717 ± 0.26.

Take E25P: the abundance fitness stood at 0.021 ± 0.07. Same read-out and setting: under E25T stands -0.065 ± 0.077; under W14V, -0.283 ± 0.058. The same measure, in the same setting: with E34D the figure was -0.129 ± 0.18; with E34G, -0.058 ± 0.057; with E34C, -0.413 ± 0.27. As for E34P, the abundance fitness was -0.678 ± 0.093.

For E34F, the abundance fitness was -0.25 ± 0.13. In the case of T59Q, the abundance fitness amounted to 0.008 ± 0.074. The same measure, in the same setting: under A7W stands -0.053 ± 0.24; under A7T, 0.029 ± 0.15; under A7L, -0.008 ± 0.11. Still for that read-out and setting: under A7Q stands -0.089 ± 0.35; under A7S, 0.052 ± 0.33; under A7K, -0.041 ± 0.25. Still for that read-out and setting: with L21E the figure was -0.849 ± 0.14.
